Test results published in patent US12486318B2, “Anti-guanosine antibody as a molecular delivery vehicle” (Yale University, priority 2016, dated 2025).
Entries after “also recorded” stand apart in the source; their conditions may differ.

How the values were obtained:
[1] = tested on: Htori-3-LLU thyroid epithelial cells; conditions: cited from earlier work
Cal12T cells = assay: Cell-penetration and co-localization immunofluorescence assay; assay type: cell-based, human
Procedure: Cal12T cells were grown on glass coverslips and treated with control media or media containing 0.5 mg/mL 4H2 for one hour. […] For co-localization studies, the fixed cells were also probed overnight with separate rabbit primary antibodies to detect endosomes (C45B10 anti-EEA1 antibody, Cell Signaling), lysosomes (D2D11 anti-LAMP1 antibody, Cell Signaling), endoplasmic reticulum (C81H6 anti-PDI antibody, Cell Signaling), golgi apparatus (D2B6N anti-RCAS1 antibody, Cell Signaling), mitochondria (3E11 anti-COX IV and D3932 anti-AIF antibodies, Cell Signaling), or K-Ras (anti-K-Ras antibody) extensively washed with PBS, and then incubated with an Alexa555-conjugated goat anti-rabbit IgG antibody (Cell Signaling). Cells were also treated with DAPI, and imaged using an EVOS fl digital fluorescence microscope (Advanced Microscopy Group, Bothell, WA) under light, DAPI, GFP, or RFP filters. Fluorescence images were merged using ImageJ (NIH, Bethesda, MD).
After confirming that 4H2 penetrates live cells, subcellular localization was investigated through immunofluorescence co-localization studies. Cal12T cells were treated with 4H2 (0.5 mg/mL) for one hour and were then washed, fixed, and immunostained with an Alexa488-conjugated anti-mouse IgG antibody. […] Cells treated with 4H2 were also co-immunostained with rabbit primary antibodies against markers of early endosomes (EEA1), lysosomes (LAMP1), Golgi (RASC1), ER (PDI), and mitochondria (COX IV), followed by detection with an Alexa555-conjugated anti-rabbit IgG antibody. Use of the Alexa488 and Alexa555-conjugated antibodies to detect 4H2 and organelle markers allowed separate visualization of 4H2 and organelle locations under GFP and RFP filters, respectively. Merging of the GFP and RFP images should yield a yellow signal in areas of co-localization. DAPI co-stain allowed visualization of nuclei in blue. Representative merged images showing DAPI, GFP, and RFP filters for each co-stain were analyzed.
To explore this, Cal12T cells treated with 4H2 were co-stained for 4H2 and K-Ras using the technique described above.

[2] = tested on: PEO1 human ovarian cancer cells; assay: Cell penetration, immunostaining of fixed cells after one hour treatment; assay type: cell-based; conditions: washed, alkaline phosphatase-conjugated anti-mouse antibody
Procedure: The ability of 4H2 to penetrate into live cells was tested. PEO1 human ovarian cancer cells were treated with control media or media containing 4H2 or 3E10 (as a positive control) for one hour, and then cells were washed, fixed, and immunostained with an alkaline phosphatase-conjugated anti-mouse antibody.

[3] = tested on: Akt phosphorylation in Cal12T cells; assay: Western blot of phospho-Akt; assay type: cell-based, human; conditions: 1 mg/mL
Procedure: (§1) Cell lysates were prepared and run on 4-15% SDS-PAGE gradient gels, followed by transfer to membranes. Membranes were then blocked and incubated with the indicated primary antibodies, followed by HRP-conjugated secondary antibody and detection of bands by chemiluminescence. Band intensity measurements were taken using ImageJ.
(§2) To probe the effect of 4H2 on signaling its effect on the phosphorylation of Akt was tested in cells.

[4] = tested on: H358 subcutaneous xenografts; assay: Tumor growth suppression assay; assay type: in vivo, nude mice; conditions: intratumoral 25 ug (50 uL of 0.5 mg/mL) twice a week for three weeks; day 15 after initiation of treatment, p<0.01
Procedure: (§3) FIG. 2A is a line graph showing the effects of 4H2 on a matched pair of isogenic parental (WT) and G12C K-Ras-mutant (KRAS) Cal12T lung cancer cells. Clonogenic survival was measured by colony formation assay (*p<0.02. N=6). FIGS. 2B and 2C are line graphs showing H441 (2B) and H358 K-Ras (2C) addicted human lung cancer cells (G12V and G12C mutations, respectively) treated with control media or media containing 4H2. Surviving fractions were determined by colony formation assay (*p<0.01. N>3). FIG. 2D is a line graph showing the effect of 4H2 on tumor volume (mm^3) of H358 tumor xenografts generated in the flanks of nude mice by subcutaneous injection of tumor cells. Once tumors reached ˜100 mm3 volume mice were treated with direct tumor injection of 50 uL of control PBS or PBS containing 0.5 mg/mL 4H2 twice a week for three weeks. Tumor volumes were monitored, and growth curves are shown. […] N=3 mice per group.
Subcutaneous xenografts were generated in nude mice by injection of 1×10^6 H358 cancer cells. Treatment with direct intratumoral injection of 50 uL of control PBS (N=3) or 4H2 in PBS (0.5 mg/mL) (N=3) twice a week for three weeks was initiated once tumors reached ˜100 mm^3. Tumor volumes were tracked by caliper measurements. […]

cAMP in cultured cells = conditions: previous findings; cited from earlier work
[5] = tested on: Akt phosphorylation in SW48 human colon cancer cells; assay: Western blot of phospho-Akt; assay type: cell-based; conditions: 1 mg/mL, 4 hours
Procedure: FIG. 1A is a line graph showing the effect of 4H2 on release Pi from GTP as measured by colorimetric assay (N=2). FIG. 1B is a bar graph showing the relative amounts of phospho-Akt in Cal12T cells treated with 1 mg/mL 4H2 at 4 and 24 hours relative to control (*p<0.05. N=4). FIG. 1C is a bar graph showing the relative amounts of phospho-Akt in SW48 human colon cancer cells treated with 1 mg/mL 4H2 at 4 hours relative to control (*p<0.05. N=2).
as §1, §2

[6] = tested on: live A549 human lung cancer cells; assay: Live cell penetration of FITC-labeled 4H2, fluorescence microscopy; assay type: cell-based; conditions: FITC-labeled 4H2 4 mg/mL, one hour
Procedure: (§4) To confirm that 4H2 penetrates live cells and exclude the observation as a fixation artifact, FITC-labeled 4H2 was applied to live Cal12T and A549 human lung cancer cells at 4 mg/mL for one hour. Cells were also treated with Hoechst and MitoTracker stains to allow detection of nuclei and mitochondria, respectively. Cells were then washed and visualized under a fluorescence microscope.

[7] = tested on: live Cal12T human lung cancer cells; assay: as above; assay type: cell-based; conditions: FITC-labeled 4H2 4 mg/mL, one hour
Procedure: as §4

[8] = GTPase assay, colorimetric Pi release from GTP; assay type: biochemical; conditions: 4H2 0-1 mg/mL, 30 minutes, absorbance at 630 nm
Procedure: Pi release from GTP after incubation with 4H2 (0-1 mg/mL) for 30 min was measured by colorimetric assay using the Innova GTPase activity kit.
The effect of 4H2 on Pi release from GTP was tested using a colorimetric assay. 4H2 (0-1 mg/mL) was incubated with GTP for 30 minutes, and Pi release was measured using the Innova GTPase activity kit. Concentration of Pi released was determined from absorbance at 630 nm and comparison to a free Pi standard curve. 4H2 in buffer alone was used as a blank.

[9] = preliminary findings, data not published; cited from earlier work
[10] = tested on: G12C K-Ras-mutant Cal12T lung cancer cells; assay: Clonogenic survival by colony formation assay; assay type: cell-based, human
Procedure: as §3
(§5) Aberrations in cell signaling caused by activating mutations in small GTPases such as the Ras family of proteins are found in ˜30% of malignancies, and K-Ras is one of the most frequently mutated small GTPases (Adjei, J Natl Cancer Inst, 93:1062-1074 (2001), Gysin, et al., Genes Cancer, 2:359-372 (2011)). Development of therapies that are preferentially toxic to K-Ras mutant cancer cells is a major goal in oncology. […]

[11] = tested on: parental (WT) Cal12T lung cancer cells; assay: Clonogenic survival by colony formation assay; assay type: cell-based, human; conditions: WT K-Ras
Procedure: as §3, §5

[12] = tested on: Single-stranded M13mp18 DNA; assay: Nucleolytic assay; assay type: biochemical; conditions: 0.5 mg/mL antibody, 37° C., 10 minutes
Procedure: Single-stranded M13mp18 DNA (50 ng; New England Biolabs, Ipswich, MA) was incubated at 37° C. for 10 minutes in control binding buffer (50 mM Tris-HCl, 100 mM NaCl, 10 mM MgCl2) or binding buffer containing 0.5 mg/mL 4H2, 3E10, or 5C6.
An intriguing feature of some anti-DNA antibodies is an association with catalytic activities. […] To determine if 4H2 has any effect on DNA integrity it was incubated with single-stranded M13mp18 plasmid DNA for 10 minutes and then evaluated the integrity of the DNA on an agarose gel. 3E10 and 5C6 were also included as negative and positive controls, respectively.

[13] = tested on: H358 K-Ras addicted human lung cancer cells; assay: Surviving fraction by colony formation assay; assay type: cell-based; conditions: K-Ras G12C
Procedure: as §3
(§6) Lastly, to confirm that 4H2 is toxic to K-Ras addicted cancer cells in vivo, H358 subcutaneous xenografts were generated in nude mice and treated by direct injection with control buffer or 25 ug of 4H2 twice a week for three weeks.

[14] = tested on: H441 K-Ras addicted human lung cancer cells; assay: Surviving fraction by colony formation assay; assay type: cell-based; conditions: K-Ras G12V
Procedure: as §3, §6

ERK and Akt = conditions: cited from earlier work
DLD1 colon cancer cells = assay: 4H2 scFv cell penetration, protein L immunostaining; assay type: cell-based; conditions: 6 μM, one hour

B1: 4H2: monoclonal anti-guanosine antibody produced by a hybridoma from MRL/lpr; VL SEQ ID NO:1, VH SEQ ID NO:5 (antibody, listed as Mus musculus, V domains shown)
VH: EVQLQQSGPELVKPGASVKMSCKASGYTFTDYYMNWVKQSHGKSLEWIGRVNPSNGGISYNQKFKGKATLTVDKSLSTAYMQLNSLTSEDSAVYYCARGPYTMYYWGQGTSVTVSS
VL: DIVLTQSPATLSVTPGDRVSLSCRASQSISNYLHWYQQKSHESPRLLIKYASQSISGIPSRFSGSGSGTDFTLSIISVETEDFGMYFCQQSNSWPLTFGAGTKLELK
In the case of B1, the association with mitochondria [1] is listed as “appeared to associate with mitochondria”, the “co-localization with endosomes or lysosomes” value (Cal12T cells; 0.5 mg/mL, one hour) is listed as “did not colocalize with endosomes or lysosomes” and the “Alexa488 signal (4H2) location” value (Cal12T cells; 0.5 mg/mL, one hour, fixed cells) is listed as “detected in the cytoplasm”. For the same molecule, the “localization to organelles: early endosomes (EEA1), lysosomes (LAMP1), Golgi (RASC1), ER (PDI), mitochondria (COX IV)” value (Cal12T cells; 0.5 mg/mL, one hour, fixed cells, merged GFP/RFP images) was “did not appear to directly localize to any of the organelles tested”, the “co-localization with K-Ras” value (Cal12T cells; co-stain for 4H2 and K-Ras, merged fluorescence) was “at least some degree of co-localization” and the “location of antibody staining in cells” value [2] was “exclusively cytoplasmic staining”. The “amount of phospho-Akt relative to control” value ([3]; 24 hours) was “reduced the amount of phospho-Akt”, the “amount of phospho-Akt relative to control” value ([3]; four hours) was “reduced the amount of phospho-Akt” and the “tumor growth / tumor volume” value [4] was “statistically significant difference in tumor volumes; also recorded: Detectable suppression of tumor growth”. For the same molecule, the cAMP in cells (cAMP in cultured cells) was “reduces cAMP in cells”, the “amount of phospho-Akt relative to control” value [5] was “reduce amounts of p-Akt” and the “4H2 signal in nuclei (overlay with Hoechst)” value [6] was “absence of 4H2 signal in the nuclei”. The “FITC fluorescence correlating to 4H2, location” value [6] was “detected in the cytoplasm”, the “co-localization with mitochondria (MitoTracker)” value [6] was “a distinct co-localization with mitochondria could not be confirmed” and the “4H2 signal in nuclei (overlay with Hoechst)” value [7] was “absence of 4H2 signal in the nuclei”. The “FITC fluorescence correlating to 4H2, location” value [7] was “detected in the cytoplasm”, the “co-localization with mitochondria (MitoTracker)” value [7] was “a distinct co-localization with mitochondria could not be confirmed” and the “Pi release from GTP” value [8] was “dose-dependent release of Pi from GTP”. The “cleavage of GTP” value [9] was “catalyzed cleavage of the gamma-phosphate bond in radiolabeled GTP”, the “clonogenic survival, sensitivity to 4H2” value [10] was “highly sensitive to 4H2” and the “clonogenic survival, sensitivity to 4H2” value [11] was “more resistant to its effects”. For the same molecule, the “effect on DNA integrity (agarose gel)” value [12] was “neither 3E10 nor 4H2 had any discernible effects on the DNA integrity”, the “surviving fraction, sensitivity to 4H2” value [13] was “sensitive to 4H2” and the “surviving fraction, sensitivity to 4H2” value [14] was “sensitive to 4H2”. For the same molecule, the “phosphorylation of ERK and Akt” value (ERK and Akt) was “reduce phosphorylation of ERK and Akt”.

B2: 4H2 scFv: single chain variable fragment of 4H2, SEQ ID NO:22: VL, linker, VH, His6 tag (protein)
scFv: DIVLTQSPATLSVTPGDRVSLSCRASQSISNYLHWYQQKSHESPRLLIKYASQSISGIPSRFSGSGSGTDFTLSIISVETEDFGMYFCQQSNSWPLTFGAGTKLELKADAAPGGGGSGGGGSGGGGSEVQLQQSGPELVKPGASVKMSCKASGYTFTDYYMNWVKQSHGKSLEWIGRVNPSNGGISYNQKFKGKATLTVDKSLSTAYMQLNSLTSEDSAVYYCARGPYTMYYWGQGTSVTVSSHHHHHH
In the case of B2, the cell penetration (DLD1 colon cancer cells) is reported as “cell-penetrating activity”.
